Measured values: patent publication US20090123474A1, “COMBINATION OF ANGIOPOIETIN-2 ANTAGONIST AND OF VEGF-A, KDR AND/OR FLTL ANTAGONIST FOR TREATING CANCER” (ASTRAZENECA AB, priority 2005, published 2009)
Numbering of substitutions follows the chain as printed.

T1: Angiopoietin-2 binding to Tie-2 (Homo sapiens, UniProt O15123)
T1 construct: purchased R&D Systems, Inc. BT623 (Angiopoietin-2, biotinylated); 313-TI-100 (Tie-2/Fc)
T1 sequence (O15123 19-496): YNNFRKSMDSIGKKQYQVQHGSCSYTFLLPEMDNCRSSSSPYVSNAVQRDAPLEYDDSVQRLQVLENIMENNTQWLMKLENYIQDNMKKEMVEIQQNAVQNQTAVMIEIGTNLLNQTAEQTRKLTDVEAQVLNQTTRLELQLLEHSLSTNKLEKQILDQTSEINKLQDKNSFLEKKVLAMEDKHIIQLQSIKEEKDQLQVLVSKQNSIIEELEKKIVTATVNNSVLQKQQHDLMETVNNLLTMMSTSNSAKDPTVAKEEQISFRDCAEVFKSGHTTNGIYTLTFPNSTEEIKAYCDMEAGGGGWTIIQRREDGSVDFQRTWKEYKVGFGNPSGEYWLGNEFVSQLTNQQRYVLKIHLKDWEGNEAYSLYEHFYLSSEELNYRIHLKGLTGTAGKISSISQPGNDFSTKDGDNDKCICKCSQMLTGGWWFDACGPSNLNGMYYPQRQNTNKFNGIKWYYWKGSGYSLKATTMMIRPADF

B1: Tie-2/Fc: soluble recombinant human Tie-2/Fc fusion protein (R&D Systems), positive control (protein)
chain: AMDLILINSLPLVSDAETSLTCIASGWRPHEPITIGRDFEALMNQHQDPLEVTQDVTREWAKKVVWKREKASKINGAYFCEGRVRGEAIRIRTMKMRQQASFLPATLTMTVDKGDNVNISFKKVLIKEEDAVIYKNGSFIHSVPRHEVPDILEVHLPHAQPQDAGVYSARYIGGNLFTSAFTRLIVRRCEAQKWGPECNHLCTACMNNGVCHEDTGECICPPGFMGRTCEKACELHTFGRTCKERCSGQEGCKSYVFCLPDPYGCSCATGWKGLQCNEACHPGFYGPDCKLRCSCNNGEMCDRFQGCLCSPGWQGLQCEREGIQRMTPKIVDLPDHIEVNSGKFNPICKASGWPLPTNEEMTLVKPDGTVLHPKDFNHTDHFSVAIFTIHRILPPDSGVWVCSVNTVAGMVEKPFNISVKVLPKPLNAPNVIDTGHNFAVINISSEPYFGDGPIKSKKLLYKPVNHYEAWQHIQVTNEIVTLNYLEPRTEYELCVQLVRRGEGGEGHPGPVRRFTTASIGLPPPRGLNLLPKSQTTLNLTWQPIFPSSEDDFYVEVERRSVQKSDQQNIKVPGNLTSVLLNNLHPREQYVVRARVNTKAQGEWSEDLTAWTLSDILPPQPENIKISNITHSSAVISWTILDGYSISSITIRYKVQGKNEDQHVDVKIKNATITQYQLKGLEPETAYQVDIFAENNIGSSNPAFSHELVTLPESQAPADLGGGK
modifications: left off: a dimerising Fc or GST
notes: soluble recombinant human Tie-2/Fc fusion protein (R&D Systems), positive control
B2: mAb 5.28.1: fully human anti-Angiopoietin-2 monoclonal antibody, variable regions SEQ ID NO: 17-20 (antibody, listed as Homo sapiens, listed as Homo Sapiens, V domains shown)
VH: EVQLVESGGIVVQPGGSLRLSCAASGFTFDDYTMHWVRQTPGKGLEWVSLISWDGGSTYYADSVKGRFTISRDNSKNSLYLQMNSLRTEDTALYYCAKDIDIAVAGTGFDHWGQGTLVTVSSA
VL: EIVMTQSPATLSVSPGERATLSCRASQSVTSNLAWYQQKPGQAPRLLIYGALIRATGIPARFSGSGSGTEFTLTISSLQSEDFAVYYCQQYNNWPFTFGPGTKVDIKR
B3: mAb 5.86.1: fully human anti-Angiopoietin-2 monoclonal antibody, variable regions SEQ ID NO: 25-28 (antibody, listed as Homo Sapiens, listed as Homo sapiens, V domains shown)
VH: QVQLVQSGAEVKKPGASVKVSCKASGYTFTGYHMYWVRQAPGQGLEWLGWINPNSGGTNYAQKFQGRVTMTRDTSISTAYMELSRLRSDDTAVYYCVRDQGIAAAGPFDYWCQGTLVTVSSA
VL: DIRMTQSPSSLSASVGDRVTITCRASQRISTYLNWYQQKPGKAPKFLIYAASSLQSGVPSRFSGSGSGTDFTLTISSLQPEDFATYYCQQSYTTPFTFGPGTKVDIKR
B4: mAb 3.3.2: fully human anti-Angiopoietin-2 monoclonal antibody, variable regions SEQ ID NO: 1-4 (antibody, listed as Homo Sapiens, V domains shown)
VH: EVQLVESGGGLVQPGGSLRLSCAVSGFTFSSYWMSWVRQAPGKGLEWVANIKQDGSEKYYVDSVKGRFTISRDNAKNSLYLQMNSLRAEDTAVYYCARDQGIAVAGPFDYWGQGTLVTVSSA
VL: EIVMTQSPATLSVSPGERATLSCRASQTVSSDLAWYQQKPGQAPRLLIYGASIRATGIPARFSGSGSGTEFTLTISSLQSEDFAVYSCQQYYNWWTFGQGTKVEIKR
B5: mAb 5.88.3: fully human anti-Angiopoietin-2 monoclonal antibody, variable regions SEQ ID NO: 29-32 (antibody, listed as Homo Sapiens, V domains shown)
VH: EVQMVESGGGLVQPGGSLRLSCAASGFTLRSYWMSWVRQAPGKGLEWVANIKEDGSEKYHVDSVKGRFTISRDNAENSLFLQMSSLRAEDTAVYYCARDMEASAGLFDYWGQGTLVTVSSA
VL: B4 VL with T20I, T28S, V29I, D32N, I53T, S87Y, Y92N, N93Y
B6: mAb 5.16.3: fully human anti-Angiopoietin-2 monoclonal antibody, variable regions SEQ ID NO: 13-16 (antibody, listed as Homo sapiens, listed as Homo Sapiens, V domains shown)
VH: QVQLVQSGAEVKKPGASVKVSCKASGYTFTGFYMYWVRQAPGQGLEWMGWINPNSSGTNHAQKFQGRVTMTRDTSISTAYMELSRLRSDDTAVYYCARDQDIATAGPFDYWGQGTLVTVSS
VL: B4 VL with T28S, D32N, Y49F, I53T, S87Y, Y92N, Q99R
B7: mAb 3.31.2: fully human anti-Angiopoietin-2 monoclonal antibody, variable regions SEQ ID NO: 9-12 (antibody, listed as Homo sapiens, V domains shown)
VH: EVQLVESGGGLVQPGGSLRLSCAASGFTFSSYWMSWVRQAPGKGLEWVANIKQDGSDKYYVDSVKGRFTISRDNAKNSLYLRMNSLRAEDTAVFYCARDMGSGWFDYWGQGTLVTVSSA
VL: B4 VL with I2V, T28S, S30G, D32N, I53T, S87C, Y92N, N93H

molecular target: T1, Angiopoietin-2 binding to Tie-2; test: Competitive binding assay (modified ELISA): inhibition of Angiopoietin-2 binding to Tie-2; details: positive control at 10-fold molar excess to Angiopoietin-2
Procedure: As discussed above, Angiopoietin-2 exerts its biological effect by binding to the Tie-2 receptor. Monoclonal antibodies that inhibited Angiopoietin-2/Tie-2 binding were identified by a competitive binding assay using a modified ELISA. The mAb used were products of micro-purification from 50 ml of exhaustive supernatants of the hybridoma pools that were specific for Angiopoietin-2 (see above). 96-well Nunc Immplates™ were coated with 100 μl of recombinant human Tie-2/Fc fusion protein (R&D Systems, Inc., Cat. No. 313-TI-100) at 4 μg/ml by incubating overnight at 4° C. The plates were washed four times using Phosphate Buffer Saline (PBS) with a Skan™ Washer 300 station (SKATRON). The wells were blocked by 100 μl of ABX-blocking buffer (0.5% BSA, 0.1% Tween, 0.01% Thimerosal in PBS) for 1 hour.
Biotinylated recombinant human Angiopoietin-2 (R&D Systems, Inc. Cat. No. […] The plates were incubated at room temperature for two hours before the unbound molecules were washed off. Bound biotinylated Angiopoietin-2 was then detected using 100 μl/well of Streptavidin-HRP conjugate at 1:200 by incubating at room temperature for half an hour. After washing twice, the bound Streptavidin was detected by HRP substrate (R&D Systems, Cat. No. DY998). The plates were incubated for 30 minutes before 450 stop solution (100 μl/well, BioFX, Cat# BSTP-0100-01) was added to terminate the reaction. The light absorbance at 450 nm was determined by a Spectramax Plus reader.
Soluble recombinant Tie-2/Fc fusion protein at 10-fold molar excess to Angiopoietin-2 was used as a positive control. At this concentration, Tie-2/Fc inhibited binding of Angiopoietin-2 to immobilized Tie-2 by 80%.
To quantitate the inhibitory activities of the mAb on Angiopoietin-2 binding to Tie-2, the titer was determined for purified mAbs from the top candidates using a competitive binding assay. Each concentration of the mAb was tested in duplicate. The concentration-response relationship was found by curve fitting using Graphpad Prism™ graphic software (non-linear, Sigmoid curve). The maximal inhibition (efficacy) and IC50 (potency) were calculated by the software.

Molecule	inhibition of binding of Angiopoietin-2 to immobilized Tie-2
B1	80%

same assay, conditions: potency, competitive binding of Angiopoietin-2 to Tie-2, purified mAb

Molecule	EC50
B2	2.698 µg/mL
B3	0.1331 µg/mL
B4	0.1684 µg/mL
B5	0.1557 µg/mL
B6	0.08532 µg/mL
B7	0.04169 µg/mL

same assay, conditions: ratio of bound Angiopoietin-2 with mAb (30 μg/ml) versus without mAb

Molecule	Efficacy*
B2	0.3892
B3	0.3844
B4	0.3881
B5	0.4032
B6	0.3279
B7	0.3751
